Measured values as given in patent US20230220042A1 (SHANGHAI JIAO TONG UNIVERSITY SCHOOL OF MEDICINE, published 2023).
Numbering of substitutions follows the chain as printed. Names may count otherwise.

T1: Biotin-FcγRIIB (human, UniProt P31994 43-217, limits assumed, biotin label)
T1 construct: Soluble labelled protein used to stain and sort the display cells; also called human FcγRIIB; CD32b
T1 sequence (looked up): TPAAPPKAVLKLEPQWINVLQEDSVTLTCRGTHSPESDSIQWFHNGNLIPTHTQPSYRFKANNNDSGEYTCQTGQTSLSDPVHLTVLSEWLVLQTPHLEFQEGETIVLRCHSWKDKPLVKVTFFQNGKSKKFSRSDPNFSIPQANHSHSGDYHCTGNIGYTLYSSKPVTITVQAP

B1: human IgG2 anti-mouse CD40 surface displayed antibody, V234Q/V266L/S267E/H268S/E269V (antibody)
light chain (with the P2A rest): DTVLTQSPALAVSPGERVTISCRASDSVSTLMHWYQQKPGQQPKLLIYLASHLESGVPARFSGSGSGTDFTLTIDPVEADDTATYYCQQSWNDPWTFGGGTKLELKRTVAAPSVFIFPPSDEQLKSGTASVVCLLNNFYPREAKVQWKVDNALQSGNSQESVTEQDSKDSTYSLSSTLTLSKADYEKHKVYACEVTHQGLSSPVTKSFNRGECGSGATNFSLLKQAGDVEENPG
heavy: EVQLVESDGGLVQPGRSLKLPCAASGFTFSDYYMAWVRQAPTKGLEWVASISYDGSSTYYRDSVKGRFTISRDNAKSTLYLQMDSLRSEDTATYYCGRHSSYFDYWGQGVMVTVSSASTKGPSVFPLAPCSRSTSESTAALGCLVKDYFPEPVTVSWNSGALTSGVHTFPAVLQSSGLYSLSSVVTVPSSNFGTQTYTCNVDHKPSNTKVDKTVERKCCVECPPCPAPPQAGPSVFLFPPKPKDTLMISRTPEVTCVVVDLESVDPEVQFNWYVDGVEVHNAKTKPREEQFNSTFRVVSVLTVVHQDWLNGKEYKCKVSNKGLPAPIEKTISKTKGQPREPQVYTLPPSREEMTKNQVSLTCLVKGFYPSDIAVEWESNGQPENNYKTTPPMLDSDGSFFLYSKLTVDKSRWQQGNVFSCSVMHEALHNHYTQKSLSLSPGKLEPPPSTVSNMATVAVLVVLGAAIVTGAVVAFVMKMRRRNTGGKGGDYALAPGSQTSDLSLPDCKVMVHDPHSLA
notes: As m1 with the Fc mutations; copies: 2 + 2
B2: human IgG2 anti-mouse CD40 surface displayed antibody, V266L/S267E/H268S/E269A/P271C (antibody, name in EU numbering)
light chain (with the P2A rest): B1 light chain (with the P2A rest)
heavy chain: B1 heavy with Q230V, V264A, P266C
notes: As m1 with the Fc mutations
B3: human IgG2 anti-mouse CD40 surface displayed antibody, V266L/S267E/H268S/E269G/P271T (antibody, name in EU numbering)
light chain (with the P2A rest): B1 light chain (with the P2A rest)
heavy chain: B1 heavy with Q230V, V264G, P266T
notes: As m1 with the Fc mutations
B4: human IgG2 anti-mouse CD40 surface displayed antibody, V266L/S267E/H268S/E269V/P271C (antibody, name in EU numbering)
light chain (with the P2A rest): B1 light chain (with the P2A rest)
heavy chain: B1 heavy with Q230V, P266C
notes: As m1 with the Fc mutations
B5: human IgG2 anti-mouse CD40 surface displayed antibody, V266L/S267D/H268D/E269D/P271Q (antibody, name in EU numbering)
light chain (with the P2A rest): B1 light chain (with the P2A rest)
heavy chain: B1 heavy with Q230V, E262D, S263D, V264D, P266Q
notes: As m1 with the Fc mutations
B6: human IgG2 anti-mouse CD40 surface displayed antibody, V266L/S267E/H268S/E269V (antibody, name in EU numbering)
light chain (with the P2A rest): B1 light chain (with the P2A rest)
heavy chain: B1 heavy with Q230V
notes: As m1 with the Fc mutations
B7: human IgG2 anti-mouse CD40 surface displayed antibody, V266L/S267E/E269K/P271G (antibody, name in EU numbering)
light chain (with the P2A rest): B1 light chain (with the P2A rest)
heavy chain: B1 heavy with Q230V, S263H, V264K, P266G
notes: As m1 with the Fc mutations
B8: anti-human OX40 antibody, human IgG2 Fc mutant Mut_23 (V266L/S267E/E269K/P271G) (antibody, name in EU numbering)
heavy: QVQLQESGPGLVKPSGTLSLTCAVSGGSISSSIWWSWVRQPPGKGLEWIGEIHHSGNTNCNPSLKSRVTISIDKSKNQFSLKLTSVTAADTAVYYCARAGTGTTLDYWGQGTLVTVSSASTKGPSVFPLAPCSRSTSESTAALGCLVKDYFPEPVTVSWNSGALTSGVHTFPAVLQSSGLYSLSSVVTVPSSNFGTQTYTCNVDHKPSNTKVDKTVERKCCVECPPCPAPPVAGPSVFLFPPKPKDTLMISRTPEVTCVVVDLEHKDGEVQFNWYVDGVEVHNAKTKPREEQFNSTFRVVSVLTVVHQDWLNGKEYKCKVSNKGLPAPIEKTISKTKGQPREPQVYTLPPSREEMTKNQVSLTCLVKGFYPSDIAVEWESNGQPENNYKTTPPMLDSDGSFFLYSKLTVDKSRWQQGNVFSCSVMHEALHNHYTQKSLSLSPGK
light: EIVLTQSPGTLSLSPGERATLSCRASQSVSGDYLAWYQQKLGQAPRLLIYGASIRATGIPDRFSGSGSGTDFTLTISKLEPEDFAVYYCQQYGSSPLTFGGGTKVEIKRTVAAPSVFIFPPSDEQLKSGTASVVCLLNNFYPREAKVQWKVDNALQSGNSQESVTEQDSKDSTYSLSSTLTLSKADYEKHKVYACEVTHQGLSSPVTKSFNRGEC
B9: anti-human OX40 antibody, human IgG2 Fc mutant Mut_24 (V266L/S267E/H268S/E269G/P271T) (antibody, name in EU numbering)
heavy: B8 heavy with H265S, K266G, G268T
light: B8 light

What follows are binders tested against T1, Biotin-FcγRIIB (assay: NGS of 3T3 display library C2 flow-sorted for FcγRIIB binding).

**Q.** With B1 as the binder, how does the “enrichment factor, percentage after 3rd sorting/percentage after 2nd sorting” value read?
**A.** 11.4 ratio

**Q.** What about the “percentage after 2nd sorting” value of the same binder?
**A.** 0.01%

**Q.** What about the “percentage after 3rd sorting” value of the same binder?
**A.** 0.09%

**Q.** Which “enrichment factor, percentage after 1st sorting/percentage before sorting” value does the source give for B2 here?
**A.** 60.5 ratio

**Q.** And the “enrichment factor, percentage after 2nd sorting/percentage after 1st sorting” value?
**A.** 3.84 ratio

**Q.** And the “enrichment factor, percentage after 3rd sorting/percentage after 2nd sorting” value?
**A.** 7.11 ratio

**Q.** What about the “enrichment factor, percentage after 3rd sorting/percentage before sorting” value of the same binder?
**A.** 1650 ratio

**Q.** What about the “increased factor, mutant enrichment factor/wild-type enrichment factor” value of the same binder?
**A.** 1180 ratio

**Q.** And the “percentage after 1st sorting” value?
**A.** 0.25%

**Q.** What about the “percentage after 2nd sorting” value of the same binder?
**A.** 0.95%

**Q.** And the “percentage after 3rd sorting” value?
**A.** 6.76%

**Q.** And the percentage before sorting?
**A.** 0%

**Q.** How did the “enrichment factor, percentage after 1st sorting/percentage before sorting” value turn out when B3 was run?
**A.** 32.7 ratio

**Q.** What about the “enrichment factor, percentage after 2nd sorting/percentage after 1st sorting” value of the same binder?
**A.** 9.34 ratio

**Q.** And the “enrichment factor, percentage after 3rd sorting/percentage after 2nd sorting” value?
**A.** 5.2 ratio

**Q.** What about the “enrichment factor, percentage after 3rd sorting/percentage before sorting” value of the same binder?
**A.** 1590 ratio

**Q.** What about the “increased factor, mutant enrichment factor/wild-type enrichment factor” value of the same binder?
**A.** 1130 ratio

**Q.** And the “percentage after 1st sorting” value?
**A.** 0.03%

**Q.** What about the “percentage after 2nd sorting” value of the same binder?
**A.** 0.24%

**Q.** And the “percentage after 3rd sorting” value?
**A.** 1.23%

**Q.** And the percentage before sorting?
**A.** 0%

**Q.** Which “enrichment factor, percentage after 2nd sorting/percentage after 1st sorting” value does the source give for B4 here?
**A.** 6.97 ratio

**Q.** And the “enrichment factor, percentage after 3rd sorting/percentage after 2nd sorting” value?
**A.** 12.6 ratio

**Q.** And the “percentage after 1st sorting” value?
**A.** 0%

**Q.** What about the “percentage after 2nd sorting” value of the same binder?
**A.** 0.01%

**Q.** And the “percentage after 3rd sorting” value?
**A.** 0.11%

**Q.** For B5, which “enrichment factor, percentage after 1st sorting/percentage before sorting” value is on record?
**A.** 122 ratio

**Q.** What about the “enrichment factor, percentage after 2nd sorting/percentage after 1st sorting” value of the same binder?
**A.** 4.07 ratio

**Q.** And the “enrichment factor, percentage after 3rd sorting/percentage after 2nd sorting” value?
**A.** 3.8 ratio

**Q.** And the “enrichment factor, percentage after 3rd sorting/percentage before sorting” value?
**A.** 1880 ratio

**Q.** And the “increased factor, mutant enrichment factor/wild-type enrichment factor” value?
**A.** 1340 ratio

**Q.** What about the “percentage after 1st sorting” value of the same binder?
**A.** 0.12%

**Q.** And the “percentage after 2nd sorting” value?
**A.** 0.49%

**Q.** And the “percentage after 3rd sorting” value?
**A.** 1.88%

**Q.** And the percentage before sorting?
**A.** 0%

**Q.** What does the source list for B6?
**A.** enrichment factor, percentage after 1st sorting/percentage before sorting: 99.9 ratio; enrichment factor, percentage after 2nd sorting/percentage after 1st sorting: 12.8 ratio; enrichment factor, percentage after 3rd sorting/percentage after 2nd sorting: 1.95 ratio; enrichment factor, percentage after 3rd sorting/percentage before sorting: 2500 ratio; increased factor, mutant enrichment factor/wild-type enrichment factor: 1780 ratio; percentage after 1st sorting: 0.17%; percentage after 2nd sorting: 2.13%; percentage after 3rd sorting: 4.15%; percentage before sorting: 0%

**Q.** How did the “enrichment factor, percentage after 1st sorting/percentage before sorting” value turn out when B7 was run?
**A.** 214 ratio

**Q.** And the “enrichment factor, percentage after 2nd sorting/percentage after 1st sorting” value?
**A.** 2.92 ratio

**Q.** What about the “enrichment factor, percentage after 3rd sorting/percentage after 2nd sorting” value of the same binder?
**A.** 2.94 ratio

**Q.** What about the “enrichment factor, percentage after 3rd sorting/percentage before sorting” value of the same binder?
**A.** 1840 ratio

**Q.** And the “increased factor, mutant enrichment factor/wild-type enrichment factor” value?
**A.** 1310 ratio

**Q.** What about the “percentage after 1st sorting” value of the same binder?
**A.** 0.14%

**Q.** What about the “percentage after 2nd sorting” value of the same binder?
**A.** 0.42%

**Q.** What about the “percentage after 3rd sorting” value of the same binder?
**A.** 1.22%

**Q.** And the percentage before sorting?
**A.** 0%

Each binder was assayed against human OX40 (human) (UniProt P43489) (assay: cell-based or functional assay).
Chain of human OX40 (human) (P43489 29-277): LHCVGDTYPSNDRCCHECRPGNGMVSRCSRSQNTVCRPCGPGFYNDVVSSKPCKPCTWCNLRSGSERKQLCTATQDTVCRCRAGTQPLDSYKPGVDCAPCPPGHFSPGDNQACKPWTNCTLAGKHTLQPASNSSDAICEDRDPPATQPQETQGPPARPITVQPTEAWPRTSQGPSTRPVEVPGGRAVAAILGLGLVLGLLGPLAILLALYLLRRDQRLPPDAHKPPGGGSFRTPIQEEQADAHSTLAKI

**Q.** With B8 as the binder, how does the Average increased factor of the activity over wild-type IgG2 of two experiments read?
**A.** 9.8

**Q.** And the Average relative activity of two experiments?
**A.** 0.43

**Q.** What about the Experiment 1 CFSE fluorescence intensity, 0.01 µg/ml of the same binder?
**A.** 898

**Q.** What about the Experiment 1 CFSE fluorescence intensity, 0.1 µg/ml of the same binder?
**A.** 777

**Q.** What about the Experiment 1 CFSE fluorescence intensity, 1 µg/ml of the same binder?
**A.** 843

**Q.** And the Experiment 1 average relative activity?
**A.** 0.37

**Q.** And the Experiment 1 relative activity, 0.01 µg/ml?
**A.** 0.26

**Q.** What about the Experiment 1 relative activity, 0.1 µg/ml of the same binder?
**A.** 0.48

**Q.** And the Experiment 1 relative activity, 1 µg/ml?
**A.** 0.36

**Q.** And the Experiment 2 CFSE fluorescence intensity, 0.1 µg/ml?
**A.** 2160

**Q.** What about the Experiment 2 CFSE fluorescence intensity, 1 µg/ml of the same binder?
**A.** 1600

**Q.** What about the Experiment 2 average relative activity of the same binder?
**A.** 0.52

**Q.** And the Experiment 2 relative activity, 0.1 µg/ml?
**A.** 0.37

**Q.** And the Experiment 2 relative activity, 1 µg/ml?
**A.** 0.67

**Q.** For B9, which Average increased factor of the activity over wild-type IgG2 of two experiments is on record?
**A.** 9.75

**Q.** What about the Average relative activity of two experiments of the same binder?
**A.** 0.43

**Q.** What about the Experiment 1 CFSE fluorescence intensity, 0.01 µg/ml of the same binder?
**A.** 912

**Q.** And the Experiment 1 CFSE fluorescence intensity, 0.1 µg/ml?
**A.** 812

**Q.** And the Experiment 1 CFSE fluorescence intensity, 1 µg/ml?
**A.** 816

**Q.** What about the Experiment 1 average relative activity of the same binder?
**A.** 0.36

**Q.** And the Experiment 1 relative activity, 0.01 µg/ml?
**A.** 0.24

**Q.** What about the Experiment 1 relative activity, 0.1 µg/ml of the same binder?
**A.** 0.42

**Q.** And the Experiment 1 relative activity, 1 µg/ml?
**A.** 0.41

**Q.** And the Experiment 2 CFSE fluorescence intensity, 0.1 µg/ml?
**A.** 2050

**Q.** What about the Experiment 2 CFSE fluorescence intensity, 1 µg/ml of the same binder?
**A.** 1650

**Q.** What about the Experiment 2 average relative activity of the same binder?
**A.** 0.53

**Q.** And the Experiment 2 relative activity, 0.1 µg/ml?
**A.** 0.43

**Q.** And the Experiment 2 relative activity, 1 µg/ml?
**A.** 0.64
